# B1: SAT2 (parent)
# chain: IIKKVAEVALDKGCSQFRLAVLDW
# B2: GFOD1 (parent)
# chain: SDDFCTFQMVLEGGVCCTVTLNFN
# Variants of: B1
# Test: protein stability index of a GFP-peptide fusion (GPS, HEK-293T) (PSI 1-6); higher = more stable
# Settings: c terminus: a fixed tail appended
# 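Further: lentivirally expressed fusions sorted by FACS into six bins by GFP to DsRed ratio, PSI derived from sequencing read proportions per bin multiplied by bin number.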
row,Variant,protein stability index
1,IIKKAAEVALDKGCSQFRLAVLDW,3.31
2,IIKKDAEVALDKGCSQFRLAVLDW,1.52
3,IIKKYAEVALDKGCSQFRLAVLDW,1.04
4,IIKKFAEVALDKGCSQFRLAVLDW,3.49
5,IIKKGAEVALDKGCSQFRLAVLDW,3.27
6,IIKKNAEVALDKGCSQFRLAVLDW,3.44
7,IIKKVATVALDKGCSQFRLAVLDW,2.79
8,IIKKVALVALDKGCSQFRLAVLDW,2.75
9,IIKKVANVALDKGCSQFRLAVLDW,2.35
10,IIKKVAPVALDKGCSQFRLAVLDW,2.75
11,IIKKVAMVALDKGCSQFRLAVLDW,1.78
12,IIKKVAIVALDKGCSQFRLAVLDW,1.52
13,IIKKVAYVALDKGCSQFRLAVLDW,2.64
14,IIKGVAEVALDKGCSQFRLAVLDW,1.54
15,IIKYVAEVALDKGCSQFRLAVLDW,2.95
16,IIKEVAEVALDKGCSQFRLAVLDW,3.05
17,IIKWVAEVALDKGCSQFRLAVLDW,3.9
18,IIKQVAEVALDKGCSQFRLAVLDW,2.45
19,IIKPVAEVALDKGCSQFRLAVLDW,1.31
20,HIKKVAEVALDKGCSQFRLAVLDW,2.14
21,CIKKVAEVALDKGCSQFRLAVLDW,2.94
22,TIKKVAEVALDKGCSQFRLAVLDW,1.86

row,Variant,protein stability index
1,DIKKVAEVALDKGCSQFRLAVLDW,2.44
2,QIKKVAEVALDKGCSQFRLAVLDW,2.23
3,SIKKVAEVALDKGCSQFRLAVLDW,2.28
4,NIKKVAEVALDKGCSQFRLAVLDW,1.38
5,KIKKVAEVALDKGCSQFRLAVLDW,2.02
6,IIKKVNEVALDKGCSQFRLAVLDW,2.71
7,IIKKVQEVALDKGCSQFRLAVLDW,1.15
8,IIKKVEEVALDKGCSQFRLAVLDW,2.19
9,IIKKVAECALDKGCSQFRLAVLDW,1.99
10,IGKKVAEVALDKGCSQFRLAVLDW,1.48
11,IDKKVAEVALDKGCSQFRLAVLDW,1.74
12,IFKKVAEVALDKGCSQFRLAVLDW,3.61
13,ISKKVAEVALDKGCSQFRLAVLDW,1.98
14,IHKKVAEVALDKGCSQFRLAVLDW,1.33
15,INKKVAEVALDKGCSQFRLAVLDW,2.16
16,IMKKVAEVALDKGCSQFRLAVLDW,1.32
17,IKKKVAEVALDKGCSQFRLAVLDW,2.16
18,IWKKVAEVALDKGCSQFRLAVLDW,1.81
19,IPKKVAEVALDKGCSQFRLAVLDW,1.03
20,IIPKVAEVALDKGCSQFRLAVLDW,1.86
21,IIRKVAEVALDKGCSQFRLAVLDW,2.37

# Variants of: B2
# Test: as above
# Settings: c terminus: a fixed tail appended
row,Variant,protein stability index
1,SDDFCTFQMVLEGGVCCTVTRNFN,1.55
2,SDDFCTFQMVLEGGVCCTVTINFN,3
3,SDDFCTFQMVLEGGVCCTVTPNFN,2.02
4,SDDFCTFQMVLEGGVCCTVTYNFN,1.69
5,SDDFCTFQMVLEGGVCCTVTMNFN,2.22
6,SDDFCTFQMVLEGGVCCTVTQNFN,1.93
7,SDDFCTFQMVLEGGVCCTVTENFN,1.63
8,SDDFCTFQMVLEGGVCCTVTGNFN,2.41
9,SDDFCTFQMVLEGGVCCTVTNNFN,1.35
10,SDDFCTFQMVLEGGVCCTVTANFN,2.61
11,SDDFCTFQMVLEGGVCCTVTFNFN,2.73
12,SDDFCTFQMVLEGGVCCTVTSNFN,1.84
13,SDDFCTFQMVLEGGVCCTVTDNFN,1.75
14,SDDFCTFQMVLEGGVCCTVTLNSN,2.62
15,SDDFCTFQMVLEGGVCCTVTLNHN,2.43
16,SDDFCTFQMVLEGGVCCTVTLNLN,2.8
17,SDDFCTFQMVLEGGVCCTVTLNGN,2.44
18,SDDFCTFQMVLEGGVCCTVTLNYN,3.05
19,SDDFCTFQMVLEGGVCCTVTLNNN,4.1
20,SDDFCTFQMVLEGGVCCTVTLNQN,1.24
21,SDDFCTFQMVLEGGVCCTVTLNAN,2.62
22,SDDFCTFQMVLEGGVCCTVTLNPN,1.56
23,SDDFCTFQMVLEGGVCCTVTLNDN,2.19
24,SDDFCTFQMVLEGGVCCTVTLNEN,3.16
25,SDDFCTFQMVLEGGVCCTVTLNIN,3.75
26,SDDFCTFQMVLEGGVCCTVQLNFN,3.57

row,Variant,protein stability index
1,SDDFCTFQMVLEGGVCCTVNLNFN,3.6
2,SDDFCTFQMVLEGGVCCTVYLNFN,1.97
3,SDDFCTFQMVLEGGVCCTVPLNFN,1.49
4,SDDFCTFQMVLEGGVCCTVWLNFN,2.71
5,SDDFCTFQMVLEGGVCCTVTLYFN,2.33
6,SDDFCTFQMVLEGGVCCTVTLLFN,2.04
7,SDDFCTFQMVLEGGVCCTVTLWFN,2.88
8,SDDFCTFQMVLEGGVCCTVTLRFN,2.43
9,SDDFCTFQMVLEGGVCCTVTLDFN,2.09
10,SDDFCTFQMVLEGGVCCTVTLIFN,3.6
11,SDDFCTFQMVLEGGVCCTVTLPFN,2.9
12,SDDFCTFQMVLEGGVCCTVTLHFN,2.62
13,SDDFCTFQMVLEGGVCCTVTLCFN,3.25
14,SDDFCTFQMVLEGGVCCTVTLQFN,4.04
15,SDDFCTFQMVLEGGVCCTVTLEFN,1.62
16,SDDFCTFQMVLEGGVCCTVTLNFS,2.05
17,SDDFCTFQMVLEGGVCCTVTLNFC,2.91
18,SDDFCTFQMVLEGGVCCTVTLNFT,2.47
19,SDDFCTFQMVLEGGVCCTVTLNFL,3.23
20,SDDFCTFQMVLEGGVCCTVTLNFP,3
21,SDDFCTFQMVLEGGVCCTVTLNFA,3.67
22,SDDFCTFQMVLEGGVCCTVTLNFW,3.94
23,SDDFCTFQMVLEGGVCCTVTLNFR,3.43
24,SDDFCTFQMVLEGGVCCTVTLNFQ,1.99
25,SDDFCTFQMVLEGGVCCTVTLNFF,3.55

# Reference: the supplement of paper PMC10567573
